Data: US9322000B2, “Methanol dehydrogenase enzymes from Bacillus” (Sinvent AS, priority 2012, dated 2016)

Legend:
[1] = Formaldehyde reductase assay of purified MDH proteins; assay type: biochemical; settings: 45° C., formaldehyde reductase activity; for Km: read-out: Km, variable substrate Formaldehyde
Method: (§1) Alcohol dehydrogenase activities were measured spectrophotometrically essentially as described previously (Hektor, Kloosterman et al. (2002) Chem 277(49): 46966-46973) and the reaction mixture contained: 100 mM Glycine-KOH pH 9.5 (unless otherwise stated), 5 mM MgSO4, 0.5 mM NAD^+ and 500 mM alcohol (methanol, ethanol, propanol, 1,3-propanediol, or butanol). NAD^+ was substituted with equal concentrations of NADP^+, FMN^+, and FAD^+, when indicated. The reaction mixture for measurements of formaldehyde reductase activity contained: 50 mM Potassium-phosphate buffer pH=6.7, 0.15 mM NADH, 1 mM DTT and 11.6 mM (0.1-116 mM) formaldehyde. The assay components were mixed in the cuvette and pre-warmed to 45° C., unless otherwise stated. The reactions were started by addition of 5-40 μg of the purified MDH proteins, and the production of NADH was monitored at 340 nm for 4 minutes. One unit of MDH activity was defined as the amount of enzyme needed to produce 1 μmol NADH per minute under the conditions described above. Purified Act (0.1-40 μg) or NudF (20 μg) proteins were added to the reaction mixtures as indicated in the text.
(§2) The purified MDH and Act proteins (20 μg) were used in the kinetic experiments performing the methanol dehydrogenase and the formaldehyde dehydrogenase assays essentially as described above. […] For determination of the Km for NAD^+ (Km,NAD+) and Vmax, the methanol concentration was kept constant at a saturating level (500 mM), while the concentration of NAD^+ was varied (5-1000 μM). […] Act (20 μg) was added to the reaction mixtures for determination of Kμ,MεOH and Vmax values in the presence of this activator, as indicated in the text. In general, the slopes of activity versus time were linear in the measured period (data not shown). Km and Vmax values were calculated by using nonlinear regression with the Microsoft Excel solver-tool to fit the measured data to the Michaelis-Menten equation, as described previously (Jakobsen et al., (2009) Appl Environ Microbiol 75(3): 652-661). The values obtained from the regression were then compared to the values obtained from Lineweaver-Burk and Hanes-Woolf plots to ensure that the global minimum, not a local minimum, had been found.

[2] = Methanol dehydrogenase assay of purified recombinant MDH proteins (NADH production at 340 nm); assay type: biochemical; settings: for Vmax, variable substrate Methanol + Act / Vmax, variable substrate Methanol / Km: 45° C., pH 9.5; for Vmax, variable substrate Methanol: absence of Act
Method: as §1, §2

[3] = In vivo Mdh activity in cell suspensions of recombinant E. coli (formaldehyde accumulating in supernatant); assay type: cell-based; settings: E. coli cell suspension
Excerpt: The genes coding for Mdh and the Mdh activator protein Act were amplified from pET21a-plasmids harboring genes from B. methanolicus strains MGA3 (mdh-MGA3, mdh2-MGA3, mdh3-MGA3 and act-MGA3) and PB1 (mdh-PB1, mdh1-PB1 and mdh2-PB1). The genes were then cloned either into the pSEVA424 plasmid (mdh genes) or in the pSEVA131 plasmid (act gene). For cloning of mdh-MGA3, mdh-PB1, mdh1-PB1 and act-MGA3, EcoRI and HindIII restrictions sites were used, while mdh2-MGA3, mdh2-PB1 and mdh3-MGA3 were cloned by using EcoRI and PstI restriction sites. The resulting expression vectors were transformed into electrocompetent wt E. coli K-12 (BW25113) and into E. coli K-12 (BW25113) with a deleted frmA gene.
Expression Experiments For expression experiments, the cells were cultivated in either Luria-Bertani (LB) medium for in vitro assays or in M9 medium for in vivo assays both containing 20 μg/ml streptomycin for pSEVA424. When Act was co-expressed the medium was supplemented with 100 μg/ml ampicillin. Expression was induced when cells reached OD 0.5 (for in vitro tests) or OD 1 (for in vivo tests) by adding 0.1 mM IPTG (final concentration) for 6 hours. Cells were then harvested by centrifugation. For in vitro assays, crude cell extract was prepared by lysing the cells in a French press following ultracentrifugation. Alternatively, cells were resuspended in M9-medium without glucose for in vivo activity measurements. Enzyme Assays
In vivo measurements of Mdh activity: For determination of Mdh activity in cell suspensions, cells were harvested after IPTG induction, washed and resuspended in M9-medium without glucose and IPTG. OD600 was set to 1 for normalization. […] The assay was started by addition of 1 M methanol and subsequent measurement of accumulating formaldehyde in the supernatant resulting from the methanol dehydrogenase catalyzed oxidation of methanol. The calculated activities were based on the assumption that 1 l of an OD1 culture contains 0.3 g biomass of which 50% is protein.

[4] = In vitro methanol dehydrogenase activity in lysates of recombinant B. subtilis 168; assay type: biochemical; settings: for methanol dehydrogenase activity on expression in B. subtilis (in words): 50° C., pH 9.5
Method: B. subtilis 168 cells were transformed with the act-MGA3, mdh-MGA3, mdh2-MGA3, and mdh3-MGA3 expression plasmids, and the analogous vectors coexpressing each of the methanol dehydrogenase genes with the act-MGA3 gene. Positive colonies were picked from the plate and the plasmid was isolated and checked by restriction for positive clones. Colonies were picked from plate and grown overnight at 37° C. (250 rpm) and diluted to OD600=0.1 in 20 ml LB containing chloramphenicol (5 μg/ml). After 3 hrs of growth at 37° C. (250 rpm), 500 μl 40% xylose were added to the culture to induce expression. The culture was grown for another 3 hrs and samples of 2 ml were taken. The sample was spun down for 2 min, 11.000×g and the supernatant was removed. The pellet was resuspended in 300 μl Birnboim A for B. subtilis (10 mM Tris-HCl pH 8.0; 20% sucrose; 50 mM NaCl; 0.25 mg/ml lysozyme; protease inhibitor) and incubated at 37° C. for 30 minutes. The samples were stored at −80° C. before use. In addition, we took advantage of recombinant E. coli cells constructed in the project expressing mdh-MGA3, mdh2-MGA3, mdh3-MGA3 and act-MGA3 from the pET21a plasmid in the in vitro assays.
The activities of the Mdh proteins were measured by following the formation of NADH spectrophoto-metrically. The reaction mixture contained: • 100 μl Glycine-KOH (pH 9.5) • 100 μl 5M Methanol (or 5M ethanol) • 5 μl 1M MgSO4 • 10 μl 50 mM NAD^+ • 10 μl sample • (10 μl E. coli act-pET21a lysate) • 775 μl H2O
The cuvets and reaction mixture without cell lysate were pre-incubated at 50° C. Formation of NADH was followed for 10 minutes at 340 nm at 50° C. The total activity was calculated by dividing the increase in absorption units per min by the extinction coefficient ([…]) and the total protein concentration in U/mg total protein. All assays were performed both by using methanol and ethanol as alternative substrates.

[5] = methanol 500 mM, read-out: Km, variable substrate NAD+

B1: Mdh2-MGA3: NAD-dependent methanol dehydrogenase encoded by chromosomal gene mdh2 of B. methanolicus MGA3, SEQ ID NO. 2 (protein)
chain: MTNTQSAFFMPSVNLFGAGSVNEVGTRLADLGVKKALLVTDAGLHGLGLSEKISSIIRAAGVEVSIFPKAEPNPTDKNVAEGLEAYNAENCDSIVTLGGGSSHDAGKAIALVAANGGKIHDYEGVDVSKEPMVPLIAINTTAGTGSELTKFTIITDTERKVKMAIVDKHVTPTLSINDPELMVGMPPSLTAATGLDALTHAIEAYVSTGATPITDALAIQAIKIISKYLPRAVANGKDIEAREQMAFAQSLAGMAFNNAGLGYVHAIAHQLGGFYNFPHGVCNAVLLPYVCRFNLISKVERYAEIAAFLGENVDGLSTYDAAEKAIKAIERMAKDLNIPKGFKELGAKEEDIETLAKNAMKDACALTNPRKPKLEEVIQIIKNAM
modifications: Bacillus methanolicus MGA3
Vmax, variable substrate Formaldehyde [1]: 1.5 U/mg | Km [1]: 5000 µM | Vmax, variable substrate Methanol + Act ([2]; 20 μg MDH + 20 μg Act): 0.15 U/mg | Vmax, variable substrate Methanol [2]: 0.04 U/mg | Km [2, 5]: 22 µM | change of Km,MeOH in the presence of Act (in words) ([2]; Act added vs. no Act): remained essentially the same | In vivo activity ([3]; 37° C., +Act): 9 mU/mg | In vivo activity ([3]; 37° C., −Act): 32 mU/mg | In vivo activity ([3]; 42° C., +Act): 11.3 mU/mg | In vivo activity ([3]; 42° C., −Act): 45 mU/mg | methanol dehydrogenase activity on expression in B. subtilis (in words) [4]: expressed active methanol dehydrogenases | ranking of activity in B. subtilis ([4]; act and mdh gene co-expressed from the same plasmid): most active

B2: Mdh-MGA3: previously reported plasmid pBM19-encoded NAD-dependent methanol dehydrogenase of B. methanolicus MGA3, SEQ ID NO. 8 (protein)
chain: MTTNFFIPPASVIGRGAVKEVGTRLKQIGAKKALIVTDAFLHSTGLSEEVAKNIREAGVDVAIFPKAQPDPADTQVHEGVDVFKQENCDSLVSIGGGSSHDTAKAIGLVAANGGRINDYQGVNSVEKPVVPVVAITTTAGTGSETTSLAVITDSARKVKMPVIDEKITPTVAIVDPELMVKKPAGLTIATGMDALSHAIEAYVAKGATPVTDAFAIQAMKLINEYLPKAVANGEDIEAREKMAYAQYMAGVAFNNGGLGLVHSISHQVGGVYKLQHGICNSVNMPHVCAFNLIAKTERFAHIAELLGENVAGLSTAAAAERAIVALERINKSFGIPSGYAEMGVKEEDIELLAKNAYEDVCTQSNPRVPTVQDIAQIIKNAM
modifications: Bacillus methanolicus MGA3
Vmax, variable substrate Formaldehyde [1]: 1.4 U/mg | Km [1]: 1000 µM | Vmax, variable substrate Methanol + Act ([2]; 20 μg MDH + 20 μg Act): 0.5 U/mg | Km ([2]; 20 μg MDH + 20 μg Act, read-out: Km, variable substrate Methanol + Act): 12000 µM | Vmax, variable substrate Methanol [2]: 0.08 U/mg | Km [2, 5]: 14 µM | reduction of Km,MeOH in the presence of Act ([2]; Act added vs. no Act): 17 fold | In vivo activity ([3]; 37° C., +Act): 1 mU/mg | In vivo activity ([3]; 37° C., −Act): 1 mU/mg | In vivo activity ([3]; 42° C., +Act): 1 mU/mg | In vivo activity ([3]; 42° C., −Act): 3 mU/mg | methanol dehydrogenase activity on expression in B. subtilis (in words) [4]: expressed active methanol dehydrogenases | ranking of activity in B. subtilis ([4]; Act supplied from E. coli lysates): most active

B3: Mdh3-MGA3: NAD-dependent methanol dehydrogenase encoded by chromosomal gene mdh3 of B. methanolicus MGA3, SEQ ID NO. 4 (protein)
chain: MKNTQSAFYMPSVNLFGAGSVNEVGTRLAGLGVKKALLVTDAGLHSLGLSEKIAGIIREAGVEVAIFPKAEPNPTDKNVAEGLEAYNAENCDSIVTLGGGSSHDAGKAIALVAANGGTIHDYEGVDVSKKPMVPLIAINTTAGTGSELTKFTIITDTERKVKMAIVDKHVTPTLSINDPELMVGMPPSLTAATGLDALTHAIEAYVSTGATPITDALAIQAIKIISKYLPRAVANGKDIEAREQMAFAQSLAGMAFNNAGLGYVHAIAHQLGGFYNFPHGVCNAILLPHVCRFNLISKVERYAEIAAFLGENVDGLSTYEAAEKAIKAIERMARDLNIPKGFKELGAKEEDIETLAKNAMNDACALTNPRKPKLEEVIQIIKNAM
modifications: Bacillus methanolicus MGA3
Vmax, variable substrate Formaldehyde [1]: 5 U/mg | Km [1]: 15000 µM | Vmax, variable substrate Methanol + Act ([2]; 20 μg MDH + 20 μg Act): 0.45 U/mg | Vmax, variable substrate Methanol [2]: 0.09 U/mg | Km [2, 5]: 40 µM | change of Km,MeOH in the presence of Act (in words) ([2]; Act added vs. no Act): remained essentially the same | In vivo activity ([3]; 37° C., +Act): 11 mU/mg | In vivo activity ([3]; 37° C., −Act): 24 mU/mg | In vivo activity ([3]; 42° C., +Act): 24 mU/mg | In vivo activity ([3]; 42° C., −Act): 31 mU/mg | methanol dehydrogenase activity on expression in B. subtilis (in words) [4]: expressed active methanol dehydrogenases
